# Measured values reported in IntAct's records for PubMed 17167421.
# B1: Synaptotagmin-2 (Rattus norvegicus (Rat)), P29101 (parent)
# chain: MRNIFKRNQEPIVAPATTTATMPLAPAAPADNSTESTGTGESQEDMFAKLKDKFFNEINKIPLPPWALIAMAVVAGLLLLTCCFCICKKCCCKKKKNKKEKGKGMKNAMNMKDMKGGQDDDDAETGLTEGEGEGEEEKEPENLGKLQFSLDYDFQANQLTVGVLQAAELPALDMGGTSDPYVKVFLLPDKKKKYETKVHRKTLNPAFNETFTFKVPYQELGGKTLVMAIYDFDRFSKHDIIGEVKVPMNTVDLGQPIEEWRDLQGGEKEEPEKLGDICTSLRYVPTAGKLTVCILEAKNLKKMDVGGLSDPYVKIHLMQNGKRLKKKKTTVKKKTLNPYFNESFSFEIPFEQIQKVQVVVTVLDYDKLGKNEAIGKIFVGSNATGTELRHWSDMLANPRRPIAQWHSLKPEEEVDALLGKNK
# Variants of: B1
# Conditions: with bxb_clobo botB
row,Variant,effect of a mutation on the interaction
1,F47A,disrupting interaction strength
2,E57K,disrupting interaction strength
3,F54A,disrupting interaction strength
4,F55A,disrupting interaction strength
5,L50A,decreasing interaction strength
